Source: patent US9664676B2, “RNA sequences that induce fluorescence of small molecule fluorophores” (Cornell University, priority 2013, dated 2017)

Columns and labels:
[1] = Thermostability measurements of Spinach RNAs with DFHBI; assay type: physicochemical; conditions: fluorescence of RNA-DFHBI complex in vitro, 20-60 °C; ±s.e.m.
Procedure: Thermostability Measurements: Spinach or Spinach2 (1 μM) was incubated in 20 mM HEPES pH 7.4, 100 mM KCl, 1 mM MgCl2 and 10 μM DFHBI. Fluorescence values were recorded in 1° C. increments from 20° C. to 60° C., with a 5-min incubation at each temperature to allow for equilibration. Fluorescence measurements were performed using a PerkinElmer LS-55 fluorescence spectrometer using the following instrument parameters: excitation wavelength, 460 nm; emission wavelength, 501 nm; slit widths, 10 nm. Curves were fitted using the Boltzmann sigmoidal equation in GraphPad Prism 5 software. Values presented are mean and s.e.m. from three independent measurements.

[2] = Folding assay (fraction of RNA folded, DFHBI); assay type: physicochemical
Procedure: Folding Assay: The folding assay involves measurement of fluorescence under two conditions, one in which RNA is in excess relative to DFHBI, and one in which the DFHBI is in excess relative to RNA. As Spinach and DFHBI form a 1:1 stoichiometric complex, the maximum amount of complex that can be formed is determined by the limiting component. In the first condition, the fluorescence was determined by incubation of 0.1 μM DFHBI and 100-fold excess (10 μM) Spinach. This value was used to define the fluorescence of 0.1 μM Spinach-DFHBI complex. It was assumed that even if nearly all Spinach is misfolded or unfolded, there will be enough properly folded Spinach to stoichiometrically bind 0.1 μM DFHBI. This was confirmed by measuring fluorescence after doubling the RNA to 20 μM, which caused no increase in fluorescence. In the second condition, the fluorescence obtained using 10 μM DFHBI and 0.1 μM Spinach was measured. In theory, up to 0.1 μM Spinach-DFHBI can form if all the Spinach is folded. However, if a portion of Spinach is unfolded, the fluorescence will be proportionately less than the fluorescence of 0.1 μM Spinach-DFHBI. Thus, this approach can reveal the fraction of Spinach that is folded under diverse conditions.
Fluorescence was measured for each RNA under the following conditions: (i) 0.1 μM RNA and 10 μM DFHBI, and (ii) 0.1 μM DFHBI and 10 μM RNA. For each condition, the signal from DFHBI without RNA was subtracted from each signal. Fluorescence was measured in 20 mM HEPES pH 7.4, 100 mM KCl and 1 mM MgCl2 at the designated temperature. Fluorescence measurements were performed using a PerkinElmer LS-55 fluorescence spectrometer using the following instrument parameters: excitation wavelength, 460 nm; emission wavelength, 501 nm; slit widths, 10 nm. Signal from the first condition (limiting RNA) was divided by the signal from the second condition (limiting dye) to determine the fraction folded.

[3] = In vitro fluorescence (brightness) of Spinach RNAs, mutants and flanked/fused constructs with DFHBI; assay type: biochemical; conditions: for fold brighter than the same construct fused to Spinach: in vitro
Text: Preparation and Analysis of Spinach and Spinach Mutants: RNAs were created by using the appropriate single-stranded DNA templates (Integrated DNA Technologies) and PCR amplification using primers that included a 5′ T7 promoter sequence to generate double-stranded DNA templates. PCR products were then purified with PCR purification columns (Qiagen) and used as templates for in vitro T7 transcription reactions (Epicentre) as described previously (Paige et al., “RNA mimics of green fluorescent protein,” Science 333: 642-646 (2011), which is hereby incorporated by reference in its entirety). RNA was purified using ammonium acetate precipitation, and quantified using both absorbance values and the Riboquant Assay kit (BD Biosciences). Photophysical characterization of Spinach2 was carried out as previously described (Paige et al., “RNA mimics of green fluorescent protein,” Science 333: 642-646 (2011), which is hereby incorporated by reference in its entirety).
Preparation and In Vitro Analysis of Flanked Spinach and Spinach2 Constructs: Spinach and Spinach2 constructs flanked on either side by 50 base pairs were generated by PCR. For Spinach, the following primers were used:
The 50-base-pair sequences were taken from the human β-actin 3′ untranslated region. Both forward primers encode the T7 RNA polymerase promoter for in vitro transcription. 5S-Spinach and 5S-Spinach2 were amplified by PCR from pAV-5S-Spinach and pAV-5S-Spinach2, respectively, using the following primers: […]
PCR products were used as templates for in vitro transcription by Ampliscribe T7 RNA polymerase as previously described (Paige et al., “RNA mimics of green fluorescent protein,” Science 333: 642-646 (2011), which is hereby incorporated by reference in its entirety). Fluorescence measurements were recorded for 0.1 μM RNA in the presence of 10 μM DFHBI in buffer composed of 20 mM HEPES pH 7.4, 100 mM KCl and […] as described above.
Next, systematic mutagenesis was carried out to identify thermostable Spinach mutants with improved folding. Because elevated G+C content can lead to stable misfolded structures (Kiliszek et al., “Crystal Structures of CGG RNA Repeats with Implications for Fragile X-Associated Tremor Attaxia Syndrome,” Nuc. Acids Res. 39:7308-7315 (2011); Sobczak et al., “RNA Structure of Trinucleotide Repeats Associated with Human Neurological Diseases,” Nuc. Acids Res. 31:5469-5482 (2003), each of which is hereby incorporated by reference in its entirety), it was reasoned that decreasing the overall G+C content could promote proper folding. Scanning mutagenesis was carried out, mutating every […] and cytosine to adenosine or uracil, respectively. In regions where G and C residues were predicted to form a base pair, both residues were mutated to A and U, to maintain the complementarity. Each of these 35 mutants was synthesized in vitro, and the fraction folded was measured at 25° C. and 42° C. Fluorescence signals that were equal to or greater than Spinach at 25° C. indicated equal or greater percent folded. A higher percentage signal at 42° C. indicated improved thermostability relative to Spinach.

E. coli = assay: Whole-cell fluorescence measurements of E. coli expressing Spinach or Spinach2; assay type: cell-based, Escherichia coli
Procedure: Cloning Spinach2 for Expression in E. coli: Spinach and Spinach2 were PCR-amplified with primers containing the EagI restriction sites on both the 5′ and 3′ ends of the Spinach sequence.
Whole-Cell Fluorescence Measurements of E. coli: BL21 cells were transformed to harbor either pET28c-tRNA-Spinach or pET28c-tRNA-Spinach2, and grown in Luria broth with 100 μg/ml kanamycin to OD600 0.4 at room temperature. The cells were then induced with addition of 1 mM IPTG for 2 h at room temperature. After induction, cells were normalized for cell density and split into two aliquots. One aliquot per sample was incubated at room temperature, and the other was incubated for 20 min at 37° C. Cells were then measured for total fluorescence using a Tecan Safirell plate reader with 460±10 nm excitation and emission was recorded at 510±10 nm. Data shown represent mean and s.e.m. values for three independent experiments.

[4] = Magnesium dependence of aptamer fluorescence; assay type: physicochemical
Procedure: To measure magnesium dependence 1 μM RNA was incubated with 10 μM 1T in 40 mM HEPES pH 7.4, 100 mM KCl buffer with different concentrations of MgCl2 and then fluorescence emission was measured on a plate reader.

[5] = In-gel imaging of tBroccoli and tdBroccoli (DFHBI-1T / SYBR Gold staining); assay type: biochemical; conditions: gel band intensity, normalized to molecular weight
Procedure: In-Gel Imaging of Spinach-Containing RNAs: Total bacterial RNA was purified using Trizol LS reagent (Life Technologies) following the manufacturer's protocol. Typically, 200-500 ng of total RNA or 50-100 ng of in vitro transcribed RNA was loaded into a well of precast 6% TBE-Urea Gel (Life Technologies) and ran at 270-300 V in 1×TBE buffer. RiboRuler Low Range RNA Ladder (Thermo Scientific) was used as band size standard.
After the gel was run to completion, the gel was washed 3×5 min with water and then stained for 30 min in 10 μM DFHBI or DFHBI-1T in buffer containing 40 mM HEPES pH 7.4, 100 mM KCl, 1 mM MgCl2. Then gel was imaged using a ChemiDoc MP with 470/30 nm excitation and 532/28 nm emission. Next, to see all the RNA in the sample, the gel was again washed 3×5 min with water followed by staining for 30 min with SYBR Gold (or Green) dye (Life Technologies) diluted 1/10000 in TBE buffer. Then gel was imaged under the same instrument using preset SYBR Gold (or Green) channel (302 nm excitation and 590/110 nm emission). Gel bands intensities were quantified in Image Lab 5.0 software (Bio-Rad). The bacterial 5S rRNA band was used for loading normalization.

HEK293T cells = assay: Flow cytometry of HEK293T cells expressing 5S rRNA-aptamer fusions with DFHBI-1T; assay type: cell-based; conditions: 5S fusions, HEK293T, 40 μM DFHBI-1T
Procedure: FIG. 24 illustrates the quantification of the flow cytometry analysis of aptamers expression in mammalian cells. To compare specific aptamers' brightness in mammalian cells, HEK293T cells were transfected with two plasmids: one expressing aptamer (with or without tRNA) fused to 5S rRNA and another expressing mCherry fluorescent protein. Cells were then treated with 40 μM DFHBI-1T and analyzed on FACSAria III instrument in two channels: green (ex=488 nm; em=525±50 nm) and red (ex=561 nm and em=610±20). For quantification, mean fluorescent signal of the non-negative population was calculated and then mean fluorescent signal of the negative population was subtracted from it to assess specific, not background fluorescent signal. Finally, this number was multiplied by the percentage of the non-negative population to provide the total fluorescent signal of the non-negative population. These numbers are plotted on the bar graph above. Where indicated, cells were also pre-treated with 5 mM MgSO4. Error bar indicates robust SD calculated by FlowJo program, used for data analysis.
Imaging 5S-tBroccoli and 5S-t-tdBroccoli: Plasmids were transfected into HEK293T cell using FuGENE HD reagent (Promega) following manufacture's protocol. Cell imaging was carried out as previously described for 5S-Spinach (Paige et al., “RNA Mimics of Green Fluorescent Protein,” Science 333(6042): 642-6 (2011), which is hereby incorporated by reference in its entirety) with DFHBI-1T instead of DFHBI. […]
Flow cytometry was used to quantify average brightness of tRNA. Transfected cells were analyzed in two channels: green (ex=488 nm; em=525±50 nm) and red (ex=561 nm; em=610±20). […] As evidenced from FIG. 14A, 5S-tBroccoli and 5S-tdBroccoli are clearly detectable in the green fluorescence channel and this specific signal appears only upon cells treatment with DFHBI-1T (FIG. 23).

B1: Spinach2: RNA aptamer SEQ ID NO: 2; Spinach1.2 variant containing all six mutations (nucleic acid)
chain: GAUGUAACUGAAUGAAAUGGUGAAGGACGGGUCCAGUAGGCUGCUUCGGCAGCCUACUUGUUGAGUAGAGUGUGAGCUCCGUAACUAGUUACAUC
modifications: listed as RNA, chemistry not given here
notes: Spinach1.2 variant containing all six mutations
With B1 the “melting temperature (Tm)” value [1] was 38±0.4 °C, the percentage folded ([2]; 25 °C, in the presence of the tRNA (tRNA^Lys3 scaffold)) was 80±6.1% and the percentage folded ([2]; 25 °C, no tRNA scaffold) was 58±4.8%. For the same molecule, the percentage folded ([2]; 37 °C, in the presence of the tRNA (tRNA^Lys3 scaffold)) was 60±5.4%, the percentage folded ([2]; 37 °C, no tRNA scaffold) was 37±3.3% and the “fluorescence retained when fused to the CGG repeat-containing RNA” value [3] was 80%. For the same molecule, the “fold brighter than Spinach in vitro” value ([3]; 25 °C) was 1.8 fold, the “fold brighter than Spinach in vitro” value ([3]; 37 °C) was 2.8 fold and the “brightness of flanked RNA relative to the same aptamer alone” value ([3]; flanked by 50 nt of RNA on both 5′ and 3′ ends, 0.1 μM RNA) was 90%. The “brightness of flanked Spinach2 versus flanked Spinach” value ([3]; flanked by 50 nt of RNA on both ends) was “tenfold brighter than flanked Spinach”, the “fold brighter than the same construct fused to Spinach” value ([3]; fusion with 5S RNA) was 3 fold and the “fold brighter than the same construct fused to Spinach” value ([3]; fusion with 7SK RNA) was 6 fold. For the same molecule, the “fold brighter than the same construct fused to Spinach” value ([3]; fusion with (CGG)60 RNA) was 20 fold, the “fluorescence retained by tagged Spinach2 relative to Spinach2 alone” value ([3]; fusions with 5S, 7SK and (CGG)60 RNA, all cases) was “more than 70%” and the “Percent Brightness (at 42° C.)” value ([3]; percent of signal remaining at 42 °C for a given mutant) was 41%. For the same molecule, the “Relative Brightness (at 25° C.)” value ([3]; relative to Spinach, 25 °C) was 1.8, the “fold brighter than Spinach in Escherichia coli” value (E. coli; 25 °C) was 1.4 fold and the “fold brighter than Spinach in Escherichia coli” value (E. coli; 37 °C) was 2.1 fold. The “percent of maximal fluorescence in magnesium-free buffer” value ([4]; 1 μM RNA, 10 μM DFHBI-1T) was 11%, the “magnesium concentration giving maximal fluorescence” value ([4]; MgCl2 titration) was ~1 mM and the “percent of maximal fluorescence at ~300 μM magnesium” value ([4]; MgCl2 titration) was 50%.

B2: tdBroccoli: dBroccoli in tRNA scaffold, SEQ ID NO: 40 (nucleic acid)
chain: GCCCGGATAGCTCAGTCGGTAGAGCAGCGGAGACGGTCGGGTCCATCTGAGACGGTCGGGTCCAGATATTCGTATCTGTCGAGTAGAGTGTGGGCTCAGATGTCGAGTAGAGTGTGGGCTCCGCGGGTCCAGGGTTCAAGTCCCTGTTCGGGCGCCA
modifications: tdBroccoli
With B2 the “fold more fluorescent than tBroccoli” value [5] was ~1.8 fold and the “brighter than tBroccoli (mean fluorescence intensity of the green population)” value (HEK293T cells) was 70%.
